Measured values from paper PMC10772735, “Characterization of erythroferrone oligomerization and its impact on BMP antagonism” (The Journal of Biological Chemistry, 2023).
Several values for one entry are separate records, joined by “and”; a condition that tells them apart may be missing. Identical values can stand only once. Like-named read-outs stand apart in the source and are kept apart here.

How the values were obtained:
[1] = target: Alk3-Fc ECD (Homo sapiens) (UniProt P36894); conditions: cited from earlier work
Chain of Alk3-Fc ECD (Homo sapiens) (P36894 24-152): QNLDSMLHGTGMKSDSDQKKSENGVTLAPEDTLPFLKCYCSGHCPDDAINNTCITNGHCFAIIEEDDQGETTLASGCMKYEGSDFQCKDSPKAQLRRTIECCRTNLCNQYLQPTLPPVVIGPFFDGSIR

[2] = target: BMP6 (UniProt P22004); assay: SPR competition (BMP6 + ERFE over Alk3-Fc captured on protein A chip); conditions: curve maximum near the ~300 s dotted line, RU is residual BMP6 binding to Alk3-Fc (lower RU = more competition by ERFE) …, read off a plot
[3] = target: the molecule itself; assay: AUC; sedimentation velocity, ΔC1Q ERFE mutants, 0.5 mg/ml, 40,000 RPM, 20 °C, absorbance at 230 nm, never frozen protein after dialysis; oligomeric states assigned qualitatively from approximate masses
[4] = target: T1, BMP6 (UniProt P22004 375-513); assay: cell-based or functional assay
T1 sequence (looked up): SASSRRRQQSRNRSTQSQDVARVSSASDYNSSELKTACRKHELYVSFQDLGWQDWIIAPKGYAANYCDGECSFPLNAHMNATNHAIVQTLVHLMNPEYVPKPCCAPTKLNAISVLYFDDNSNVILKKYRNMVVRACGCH

[5] = target: the molecule itself; assay: non-reducing SDS-PAGE; purified ERFE analysed by SDS-PAGE under reducing and nonreducing conditions; shows only disulfide-linked species
[6] = target: T2, BMP6, P22004; assay: SPR competition (BMP6 + ERFE over Alk3-Fc captured on protein A chip); conditions: chain shown with the change, curve maximum near the ~300 s dotted line, read off a plot
T2 chain: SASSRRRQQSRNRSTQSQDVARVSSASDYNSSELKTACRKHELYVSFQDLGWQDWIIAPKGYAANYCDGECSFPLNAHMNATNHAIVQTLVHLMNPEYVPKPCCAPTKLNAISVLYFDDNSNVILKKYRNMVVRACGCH

[7] = target: the molecule itself; assay: AUC; sedimentation velocity, full-length ERFE constructs, 0.5 mg/ml, 20,000 rpm, 20 °C, absorbance at 230 nm, freshly purified never frozen protein after dialysis (20 mM Hepes pH 7.5, 150 mM NaCl, 5 mM CaCl2); oligomeric states assigned qualitatively from approximate masses
[8] = target: T1, BMP6; assay: cell-based or functional assay; remark: listed apart in the source
[9] = target: T3, BMP7 (UniProt P18075 293-431); assay: cell-based or functional assay
T3 sequence (looked up): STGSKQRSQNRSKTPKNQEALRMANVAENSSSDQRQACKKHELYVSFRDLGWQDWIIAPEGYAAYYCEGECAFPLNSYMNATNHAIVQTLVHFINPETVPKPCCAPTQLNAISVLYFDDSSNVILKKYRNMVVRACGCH

[10] = target: T4, GDF5 (UniProt P43026 382-501); assay: cell-based or functional assay
T4 sequence (looked up): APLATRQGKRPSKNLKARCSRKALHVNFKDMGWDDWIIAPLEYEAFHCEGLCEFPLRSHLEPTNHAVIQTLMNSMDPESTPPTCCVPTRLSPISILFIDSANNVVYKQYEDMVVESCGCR

[11] = target: BMP2 (UniProt P12643 283-396); assay: cell-based or functional assay
Chain of BMP2 (P12643 283-396): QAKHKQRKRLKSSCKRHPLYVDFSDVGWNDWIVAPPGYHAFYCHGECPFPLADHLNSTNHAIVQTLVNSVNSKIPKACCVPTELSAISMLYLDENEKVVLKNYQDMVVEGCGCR

[12] = target: T1, BMP6; assay: cell-based or functional assay; remark: listed apart in the source

For BMP6 (from UniProt P22004), the Kd [1] is listed as 62.5 nM.

Work on “ΔC1Q ERFE (from UniProt Q4G0M1) CLR* (center PGP in the CLR to SSS); C155S; C157S” yielded a response ([2]; 10 nM BMP6 + 80 nM CLR*Cys*ΔC1Q ERFE) of 19 RU and a response ([2]; 10 nM BMP6 + 160 nM CLR*Cys*ΔC1Q ERFE) of 17 RU.

B1: Cys∗ΔC1Q ERFE (domain or fragment, human, UniProt Q4G0M1 44-207, looked up)
chain: PPPGNELPRGPGESRAGPAARPPEPTAERAHSVDPRDAWMLFVRQSDKGVNGKKRSRGKAKKLKFGLPGPPGPPGPQGPPGPIIPPEALLKEFQLLLKGAVRQRERAEPEPSTSGPAGPVAASLAPVSATAGEDDDDVVGDVLALLAAPLAPGPRAPRVEAAFL
notes: erythroferrone (ERFE), human, stop codon at C208, Cys155 and Cys157 mutated to serines (C208 is not in the truncated chain); source: Expi293, transfected, purified; not shown: FLAG, N-terminal, kept
With B1 the “stoichiometry N” value [3] was 3 and the “IC50 of inhibition of 2.5 nM BMP6 signalling, luciferase reporter, BRITER cells” value (from here on “IC50 of inhibition … BRITER cells”) [4] was 97 nM.

B2: CLR∗Cys∗ΔC1Q ERFE (domain or fragment)
chain: PPPGNELPRGPGESRAGPAARPPEPTAERAHSVDPRDAWMLFVRQSDKGVNGKKRSRGKAKKLKFGLPGPPGPSSSQGPPGPIIPPEALLKEFQLLLKGAVRQRERAEPEPSTSGPAGPVAASLAPVSATAGEDDDDVVGDVLALLAAPLAPGPRAPRVEAAFL
In the case of B2, the “IC50 of inhibition … BRITER cells” value [4] is reported as 290 nM.

B3: ΔC1Q ERFE (domain or fragment, human, UniProt Q4G0M1 44-207, looked up)
chain: PPPGNELPRGPGESRAGPAARPPEPTAERAHSVDPRDAWMLFVRQSDKGVNGKKRSRGKAKKLKFGLPGPPGPPGPQGPPGPIIPPEALLKEFQLLLKGAVRQRERAEPEPCTCGPAGPVAASLAPVSATAGEDDDDVVGDVLALLAAPLAPGPRAPRVEAAFL
notes: erythroferrone (ERFE), human, construct from residue 44 with a stop codon introduced at C208, removing the entire C1Q domain; source: Expi293, transfected, purified; not shown: FLAG, N-terminal, kept
For B3, the “stoichiometry N” value [5] was 2, the “stoichiometry N” value [3] was 3 and the “IC50 of inhibition … BRITER cells” value [4] was 7.8 nM.

B4: CLR∗ΔC1Q ERFE (domain or fragment)
chain: PPPGNELPRGPGESRAGPAARPPEPTAERAHSVDPRDAWMLFVRQSDKGVNGKKRSRGKAKKLKFGLPGPPGPSSSQGPPGPIIPPEALLKEFQLLLKGAVRQRERAEPEPCTCGPAGPVAASLAPVSATAGEDDDDVVGDVLALLAAPLAPGPRAPRVEAAFL
For B4, the “stoichiometry N” value [3] was 2 and the “IC50 of inhibition … BRITER cells” value [4] was 27 nM.

B5: N-terminally flag-tagged hERFE (residues 44–354), WT erythroferrone, Q4G0M1 CLR* (center PGP in the CLR to SSS); C155S; C157S; C208S (protein)
chain: PPPGNELPRGPGESRAGPAARPPEPTAERAHSVDPRDAWMLFVRQSDKGVNGKKRSRGKAKKLKFGLPGPPGPSSSQGPPGPIIPPEALLKEFQLLLKGAVRQRERAEPEPSTSGPAGPVAASLAPVSATAGEDDDDVVGDVLALLAAPLAPGPRAPRVEAAFLSRLRRDALVERRALHELGVYYLPDAEGAFRRGPGLNLTSGQYRAPVAGFYALAATLHVALGEPPRRGPPRPRDHLRLLICIQSRCQRNASLEAIMGLESSSELFTISVNGVLYLQMGQWTSVFLDNASGCSLTVRSGSHFSAVLLGV
For B5, the response ([6]; 10 nM BMP6 + 5 nM CLR*Cys* ERFE, RU is residual BMP6 binding to Alk3-Fc (lower RU = more competition by ERFE), BMP6 …) was 11 RU, the response ([6]; 10 nM BMP6 + 10 nM CLR*Cys* ERFE, RU is residual BMP6 binding to Alk3-Fc (lower RU = more competition by ERFE), BMP6 …) was 8.7 RU and the response ([6]; 10 nM BMP6 + 20 nM CLR*Cys* ERFE, RU is residual BMP6 binding to Alk3-Fc (lower RU = more competition by ERFE), BMP6 …) was 6.2 RU. The response ([6]; 10 nM BMP6 + 40 nM CLR*Cys* ERFE, RU is residual BMP6 binding to Alk3-Fc (lower RU = more competition by ERFE), BMP6 …) was 4 RU, the response ([6]; 10 nM BMP6 + 80 nM CLR*Cys* ERFE, RU is residual BMP6 binding to Alk3-Fc (lower RU = more competition by ERFE), BMP6 …) was 2.3 RU and the response ([6]; 10 nM BMP6 + 160 nM CLR*Cys* ERFE, RU is residual BMP6 binding to Alk3-Fc (lower RU = more competition by ERFE) …) was 1.2 RU.

B6: N-terminally flag-tagged hERFE (residues 44–354), WT erythroferrone (natural protein, human, UniProt Q4G0M1 44-354, looked up)
chain: PPPGNELPRGPGESRAGPAARPPEPTAERAHSVDPRDAWMLFVRQSDKGVNGKKRSRGKAKKLKFGLPGPPGPPGPQGPPGPIIPPEALLKEFQLLLKGAVRQRERAEPEPCTCGPAGPVAASLAPVSATAGEDDDDVVGDVLALLAAPLAPGPRAPRVEAAFLCRLRRDALVERRALHELGVYYLPDAEGAFRRGPGLNLTSGQYRAPVAGFYALAATLHVALGEPPRRGPPRPRDHLRLLICIQSRCQRNASLEAIMGLESSSELFTISVNGVLYLQMGQWTSVFLDNASGCSLTVRSGSHFSAVLLGV
notes: erythroferrone (ERFE, FAM132B), human, residues 44-354; By AUC a mixture of trimer, hexamer and a little high molecular weight species; also called WT ERFE; N-Flag ERFE; not shown: FLAG, N-terminal, kept
For B6, the “stoichiometry N” value [5] was 2, the “stoichiometry N” value [7] was 3 and 6 and the “IC50 of ERFE inhibition of BMP6 (2.5 nM) signalling, BMP responsive luciferase assay (BRE promoter)” value [8] was 5.2 nM. The “IC50 of ERFE inhibition of BMP7 (2.5 nM) signalling, BMP responsive luciferase assay (BRE promoter)” value [9] was 8.9 nM, the “IC50 of ERFE inhibition of GDF5 (2.5 nM) signalling, BMP responsive luciferase assay (BRE promoter)” value [10] was 130 nM and the “IC50 of ERFE inhibition of BMP2 (2.5 nM) signalling, BMP responsive luciferase assay (BRE promoter)” value [11] was 170 nM.

B7: Cys∗ ERFE (natural protein, human, UniProt Q4G0M1 44-354, looked up)
chain: PPPGNELPRGPGESRAGPAARPPEPTAERAHSVDPRDAWMLFVRQSDKGVNGKKRSRGKAKKLKFGLPGPPGPPGPQGPPGPIIPPEALLKEFQLLLKGAVRQRERAEPEPSTSGPAGPVAASLAPVSATAGEDDDDVVGDVLALLAAPLAPGPRAPRVEAAFLSRLRRDALVERRALHELGVYYLPDAEGAFRRGPGLNLTSGQYRAPVAGFYALAATLHVALGEPPRRGPPRPRDHLRLLICIQSRCQRNASLEAIMGLESSSELFTISVNGVLYLQMGQWTSVFLDNASGCSLTVRSGSHFSAVLLGV
notes: erythroferrone (ERFE), human, residues 44-354, Cys155, 157 and 208 mutated to serines; source: some mutants αFlag resin first; not shown: FLAG, N-terminal, kept
In the case of B7, the “stoichiometry N” value [7] is reported as 3 and the “IC50 of inhibition … BRITER cells” value [4] is reported as 8.7 nM.

B8: D90A ERFE (natural protein, human, UniProt Q4G0M1 44-354, looked up)
chain: PPPGNELPRGPGESRAGPAARPPEPTAERAHSVDPRDAWMLFVRQSAKGVNGKKRSRGKAKKLKFGLPGPPGPPGPQGPPGPIIPPEALLKEFQLLLKGAVRQRERAEPEPCTCGPAGPVAASLAPVSATAGEDDDDVVGDVLALLAAPLAPGPRAPRVEAAFLCRLRRDALVERRALHELGVYYLPDAEGAFRRGPGLNLTSGQYRAPVAGFYALAATLHVALGEPPRRGPPRPRDHLRLLICIQSRCQRNASLEAIMGLESSSELFTISVNGVLYLQMGQWTSVFLDNASGCSLTVRSGSHFSAVLLGV
In the case of B8, the “IC50 of inhibition … BRITER cells” value [12] is reported as 13 nM.

B9: N94A ERFE (natural protein, human, UniProt Q4G0M1 44-354, looked up)
chain: PPPGNELPRGPGESRAGPAARPPEPTAERAHSVDPRDAWMLFVRQSDKGVAGKKRSRGKAKKLKFGLPGPPGPPGPQGPPGPIIPPEALLKEFQLLLKGAVRQRERAEPEPCTCGPAGPVAASLAPVSATAGEDDDDVVGDVLALLAAPLAPGPRAPRVEAAFLCRLRRDALVERRALHELGVYYLPDAEGAFRRGPGLNLTSGQYRAPVAGFYALAATLHVALGEPPRRGPPRPRDHLRLLICIQSRCQRNASLEAIMGLESSSELFTISVNGVLYLQMGQWTSVFLDNASGCSLTVRSGSHFSAVLLGV
In the case of B9, the “IC50 of inhibition … BRITER cells” value [12] is reported as 21 nM.
